Experimental data as given in patent US20100172914A1 (MAYO FOUNDATION FOR MEDICAL EDUCATION AND RESEARCH, published 2010).

Biological target: T1, TRAIL R1-Fc fusion protein (UniProt O00220 24-239, limits assumed)
T1 construct: The construct is not described beyond its name; not shown: Fc portion
Experiment: immunoprecipitation with receptor-Fc from lysates of HA-TRAIL-s transfected 293T cells, Western blot

T1 sequence (O00220 24-239 limits assumed): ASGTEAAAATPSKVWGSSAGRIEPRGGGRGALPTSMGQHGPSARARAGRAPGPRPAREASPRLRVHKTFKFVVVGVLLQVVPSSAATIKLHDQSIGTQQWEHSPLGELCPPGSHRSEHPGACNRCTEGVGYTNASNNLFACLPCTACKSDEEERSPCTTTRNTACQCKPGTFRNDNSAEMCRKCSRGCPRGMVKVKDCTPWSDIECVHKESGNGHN

B1: HA-tagged TRAIL-s (ligand)
chain: MAMMEVQGGPSLGQTCVLIVIFTVLLQSLCVAVTYVYFTNELKQMQDKYSKSGIACFLKEDDSYWDPNDEESMNSPCWQVKWQLRQLVRKTPRMKRLWAAK
notes: also called HA-TRAIL-s; not shown: HA tag of the HA-pcDNA3 vector
B1: no binding.
